The text below walks through data of patent US20230174955A1.

Series [1] deals with full length collagen (with foldON), expressed in Pichia strain PP654 (vector MMV-398). The series can be described thus: cell-based or functional assay.
The target of series [2] is collagen secreted by strains PP766 and PP767 along with mimiP4H.
Series [3] concerns the target purified collagen derived from strain PP685, added to fermentation supernatant.
For series [4], the target named is collagen substrate of the in-vitro hydroxylation reaction with purified secreted mimiP4H.

“mimi-virus P4H (monomeric prolyl 4-hydroxylase), intracellular, expressed in Pichia strain PP654 from vector MMV-580 (enzyme)” showed a hydroxylation level of collagen (mass spec of gel band; in vivo, PP654 in fermenters) in series [1] of 17%.

B1: secreted mimi-virus P4H from Pichia (vector MMV-644; strains PP765, PP766, PP767), with 6X His tag at the C-terminus (protein)
chain: VLSKSCVSHFRNVGSLNSRDVNLKDDFSYANIDDPYNKPFVLNNLINPTKCQEIMQFANGKLFDSQVLSGTDKNIRNSQQMWISKNNPMVKPIFENICRQFNVPFDNAEDLQVVRYLPNQYYNEHHDSCCDSSKQCSEFIERGGQRILTVLIYLNNEFSDGHTYFPNLNQKFKPKTGDALVFYPLANNSNKCHPYSLHAGMPVTSGEKWIANLWFRERKFSHHHHHH
For B1, the “hydroxylation of secreted collagen in fermentation supernatant” value in series [2] is “An increase in hydroxylation was observed for both the secreted collagen and added purified collagen”. Besides, the “hydroxylation of added purified collagen in unpurified fermentation supernatant” value in series [3] was “All reactions showed an increase in the hydroxylation over the pre-reaction levels (~3%)”. Also, in series [4], the “%HyP, colorimetric assay, in-vitro hydroxylation reaction” value is “Ni-NTA purified mimiP4H showed 24% hydroxylation”.
